The text below walks through data of patent publication US6492131B1, “Class I-type lysyl-TRNA synthetase” (Yale University, priority 1997, dated 2002).

Substrate in this data set: NCCCC[C@H](N)C(=O)O
Briefly: Kinetic characterization of LysRS: aminoacylation of M. maripaludis total tRNA with lysine. It is filed as biochemical, Methanococcus maripaludis. Conditions: other: purified native LysRS 5 nM, 37° C., pH 7.2. An excerpt:
To investigate the formation of Lys-tRNA in cell-free extracts prepared from M. maripaludis, (^14C) lysine and homologous total TRNA were used as substrates (6). […] This was confirmed by the observation that (^14C)Lys-tRNA synthesis was inhibited by only one of the 20 canonical amino acids, lysine (FIG. 1). This is consistent with the presence of LysRS, since Lys-tRNA synthesis via a mischarged tRNA would result in a non-labeled amino acid other than lysine being able to inhibit lysylation of tRNA. On the basis of these observations LysRS from M. maripaludis was purified. By standard chromatographic procedures (8), a single 62-kD protein was isolated, which was purified to homogeneity as judged by both silver staining after denaturing polyacrylamide gel electrophoresis (SDS-PAGE) and the appearance of a single symmetrical peak during size exclusion chromatography. […] The enzyme could acylate unfractionated tRNA with lysine to the same degree as the M. maripaludis crude extract (FIG. 1), confirming that the purified protein is LysRS. […] These modified nucleotides have previously been detected at position 34 in all known tRNA^Glu and tRNA^Lys isoacceptors (13).
6. […]
9. […] Sampling and quantification were as described (K. -W. Hong et al., EMBO J. 15, 1983 (1996)).

In general, Km refers to the substrate concentration at which the rate is half of its maximum. As a reminder, the kcat is the number of substrate molecules converted per active site and unit of time at saturation.

B1: M. maripaludis LysRS (Methanococcus maripaludis) (protein)
chain: MHWADATSEKIMKKRNAEEYVVSSGITPSGHIHIGNARETLTADAVYKGMLKKGAEAKLIFIADDYDPLRKLYPFLPKEFEKYIGMPLSEIPCPQGCCKSYADHFLMPFLNSLEDLGVEITTHRANECYKAGMYNEAIITALENRLKIKELLDSYRKEPLADNWYPLNVVCEKCGKMHETKVTSYNSEDKTITYVCKCGFENTVQPFNGIGKLPWRVDWPARWNIFGVTAEPMGKDHAASGGSYDTGIKIARQIFNYQAPEKMVYEWIQLKIGDKAMPMSSSSGVVFAVKDWTEICHPEVLRFLILKGKPTKHIDFDLKAISNLVDDYDELERKYFELIEKQKTEELNDNENEKISLYELVTPKIPERLPLQVAYRFCSIIAQIALDKETQKIDMERVFDILGRNGYNPAEFSEYDKSRLEKRLYMSKKWASDYGENLEINDFEQAKEQYETLSEEQKAWLKAFSKEVENIEIDANTIHELMYETATKLNLAPKEAFVASYKILLGKNYGPKLGSFLASLKKEFVIGRFNLTE
For the protein B1, the Km came to 2.2 µM and the kcat worked out at 1.6 s⁻¹.
